The values that follow are results of earlier work, collected in publication PMC3413252.

One data set has as its target soluble IL6 receptor (UniProt P08887).
In another data set the target is surface IL6 receptor (UniProt P08887).

IL6, sequence (P05231 30-212): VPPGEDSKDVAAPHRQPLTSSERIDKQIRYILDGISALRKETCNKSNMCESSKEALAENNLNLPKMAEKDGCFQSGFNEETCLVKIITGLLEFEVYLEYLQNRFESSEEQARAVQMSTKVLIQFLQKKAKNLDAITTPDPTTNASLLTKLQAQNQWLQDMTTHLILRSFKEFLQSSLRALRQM

For orientation: Kd means the free concentration of one partner at which half of the binding sites on the other are occupied at equilibrium, for simple one-to-one binding. As for IL6 (from UniProt P05231), the Kd is 30 nM with soluble IL6 receptor and 0.1 nM with surface IL6 receptor.
